Data: paper PMC2729104 (Nature immunology, 2009)

Assays:
[1] = molecular target: protease fragment Bb of factor B (from plasma-purified FB) (human, UniProt P00751 260-764); assay: pull-down
[2] = molecular target: protease fragment Bb of factor B (from recombinant FB) (human, UniProt P00751 260-764); assay: crystal structure
Sequence of protease fragment Bb of factor B (from recombinant FB) (P00751 260-764): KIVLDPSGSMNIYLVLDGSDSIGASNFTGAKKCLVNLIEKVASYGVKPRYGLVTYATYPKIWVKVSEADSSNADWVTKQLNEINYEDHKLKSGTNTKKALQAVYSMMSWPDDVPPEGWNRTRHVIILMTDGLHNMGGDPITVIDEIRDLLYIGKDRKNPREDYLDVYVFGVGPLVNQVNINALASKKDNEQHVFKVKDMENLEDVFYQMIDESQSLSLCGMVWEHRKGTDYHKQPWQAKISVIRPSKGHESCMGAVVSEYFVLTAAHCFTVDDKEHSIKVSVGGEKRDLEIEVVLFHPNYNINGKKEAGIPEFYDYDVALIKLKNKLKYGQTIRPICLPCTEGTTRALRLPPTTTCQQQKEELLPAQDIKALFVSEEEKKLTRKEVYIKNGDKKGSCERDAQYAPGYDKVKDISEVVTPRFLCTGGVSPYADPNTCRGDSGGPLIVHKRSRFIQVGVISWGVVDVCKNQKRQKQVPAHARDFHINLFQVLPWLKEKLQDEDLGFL

Sequence of protease fragment Bb of factor B (from plasma-purified FB) (P00751 260-764): as above

B1: SCIN protein with an N-terminal His6 tag (natural protein, Staphylococcus aureus)
chain: STSLPTSNEYQNEKLANELKSLLDELNVNELATGSLNTYYKRTIKISGQKAMYALKSKDFKKMSEAKYQLQKIYNEIDEALKSKY
**Q.** Does B1 bind [1]?
**A.** binds

**Q.** Does B1 bind [2]?
**A.** binds
